Here are results for 3 molecules from US20160002338A1 (Hoffmann-La Roche, published 2016).

In assay [1] the target is T1, HER4 ECD peptide hairpin, overlapping 15-mer peptides (human).
T1 construct: also called β-hairpin of HER4
T1 peptide: PQTFVYNPTTFQLEHNFNA
Description: CelluSpots peptide array.

A further assay concerns the target T2, HER4 ECD-HRG complex (human, UniProt Q15303 26-651).
T2 construct: HER4 ECD preincubated with a 5-fold molar excess of Heregulin; also called HER-4-ECD-RG
T2 sequence 1: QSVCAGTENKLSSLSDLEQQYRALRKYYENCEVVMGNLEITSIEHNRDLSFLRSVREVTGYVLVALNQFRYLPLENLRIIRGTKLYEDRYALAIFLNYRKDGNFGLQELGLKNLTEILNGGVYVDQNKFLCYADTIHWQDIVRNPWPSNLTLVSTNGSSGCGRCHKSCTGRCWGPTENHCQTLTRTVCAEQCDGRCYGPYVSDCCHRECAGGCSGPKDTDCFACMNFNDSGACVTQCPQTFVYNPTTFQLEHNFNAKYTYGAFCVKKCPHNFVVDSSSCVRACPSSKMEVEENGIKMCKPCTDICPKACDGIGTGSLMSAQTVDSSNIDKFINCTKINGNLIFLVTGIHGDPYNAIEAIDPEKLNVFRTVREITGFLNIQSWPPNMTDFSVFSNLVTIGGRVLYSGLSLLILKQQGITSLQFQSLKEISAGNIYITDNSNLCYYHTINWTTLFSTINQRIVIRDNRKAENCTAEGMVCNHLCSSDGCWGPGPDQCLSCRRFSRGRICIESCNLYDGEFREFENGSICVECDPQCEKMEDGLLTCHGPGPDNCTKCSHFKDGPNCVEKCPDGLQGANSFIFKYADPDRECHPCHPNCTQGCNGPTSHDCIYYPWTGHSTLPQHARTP
T2 sequence 2: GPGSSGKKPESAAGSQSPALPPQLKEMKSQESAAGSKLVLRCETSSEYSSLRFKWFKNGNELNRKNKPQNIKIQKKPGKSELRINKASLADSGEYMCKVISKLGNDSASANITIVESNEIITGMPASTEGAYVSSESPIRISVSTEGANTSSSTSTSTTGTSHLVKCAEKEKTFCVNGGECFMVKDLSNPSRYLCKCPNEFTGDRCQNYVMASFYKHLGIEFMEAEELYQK
Description: SPR Biacore 3000, 37 C. (In general: SPR reads the build-up and loss of mass on a sensor chip optically.)

For the next assay, the target named is T3, HER3 ECD-HRG complex (human, UniProt P21860 20-643).
T3 construct: also called Heregulin/Her-3 ECD
Description: SPR Biacore 3000, 37 C.

For assay [2], the target named is T4, human recombinant HER3 ECD (human, UniProt P21860 20-643).
T4 construct: 68 kDa; also called human-Her3-ECD; full length Her3 ECD
Description: SPR Biacore 3000, 37 C.

The target of assay [3] is human HER3 (full length, on cells) (human, UniProt P21860 20-1342). Description: cell-based or functional assay.

B1: anti-HER3 antibody M-08-11 (antibody, V domains shown)
VH: QAYLQQSGAELMRPGASVRMSCQASGYTFTSYTIHWLKQTPRQGLEWIGAIYPRNGDFSYNQKFKDKASLTVDTSSSTAYMHLSSLTSEDSAVYFCARTINYGDWFAYWGQGTLVTVSA
VL: DIQMIQSPASLFVSEGETVIITCRASENIYSNLAWYHQKKGKSPQVLVYAAIKLADGVPLRFSGSGSGTQFSLKINSLQSEDFGSYYCQHFWGPPYTFGSGTNLEIK
notes: also called M-011; <Her3> M-08-11
Turning to B1, the binding result in assay [1] is given as “no binding (tested: 1 µg/mL)”.

B2: humanized variant VH-A/VL-D of anti-HER3 antibody M-05-74 (antibody, V domains shown)
VH: QVQLVQSGAELKKPGASVKVSCRTSGYTLTDYWIHWVRQAPGQGLEWMGYINPYTGYTESNQKFKDRVAMTRDASINTAYMELTSLRSDDTAVYYCARPYYYGDYWGQGTLVTVSS
VL: EIVLTQSPATLSLSPGERATLSCSASSSVSYMHWFQQKPGQPPRLLIYSTSNLASGIPARFSGSGSGTDFTLTISSLEPEDFAVYYCQQRSSYPFTFGGGTKVEIK
notes: also called humanized DIB-74
Consider B2, for which the “Molar Ratio MR” value with HER4 ECD-HRG complex came to 0.8; with HER3 ECD-HRG complex, 0.8; in assay [2] it was 0.7.

B3: M-05-74-Fab-Pseudomonas exotoxin conjugate (M-05-74-PE) (other)
light: QIVLTQSPAIMSASPGERVTITCSASSSVSYMHWFQQKPGTSPKLLIYSTSNLASGVPARFSGSGSGTSYSLTISRMEAEDAATYYCQQRSSYPFTFGSGTKLEIKRTVAAPSVFIFPPSDEQLKSGTASVVCLLNNFYPREAKVQWKVDNALQSGNSQESVTEQDSKDSTYSLSSTLTLSKADYEKHKVYACEVTHQGLSSPVTKSFNRGEC
heavy: QVQLQQSGAELAKPGASVKMSCKTSGYTLTDYWIHWVKQRPGQGLEWIGYINPYTGYTESNQKFKDKATLTADKSSNTAYIQLSSLTSEDSAVYYCARPYYYGDYWGQGTTLTVSSASTKGPSVFPLAPSSKSTSGGTAALGCLVKDYFPEPVTVSWNSGALTSGVHTFPAVLQSSGLYSLSSVVTVPSSSLGTQTYICNVNHKPSNTKVDKKVEPKSCGGGSLPETGGGRHRQPRGWEQLYPTGAEFLGDGGAVSFSTRGTQNWTVERLLQAHRQLEEGGYVFVGYHGTFLEAAQSIVFGGVRARSQDLDAIWAGFYIAGDPALAYGYAQDQEPDAAGRIRNGALLRVYVPRSSLPGFYATSLTLAAPEAAGEVERLIGHPLPLRLDAITGPEESGGRLETILGWPLAERTVVIPSAIPTDPRNVGGDLDPSSIPDSEAAISALPDYASQPGKPPREDL
Take B3: in assay [3], the “EC50 of cell killing of A549 cells, +HRG beta” value stood at 0.13 µg/mL and the “EC50 of cell killing of A549 cells, -HRG beta” value was determined as 1.93 µg/mL.
